Reference: PMC6771872, “Fast‐acting insulin aspart in people with type 2 diabetes: Earlier onset and greater initial exposure and glucose‐lowering effect compared with insulin aspart” (Diabetes, Obesity & Metabolism, 2019)

Columns and labels:
Format in all cases: in vivo, human
[1] = system: people with type 2 diabetes; test: Euglycaemic glucose clamp, glucose infusion rate (glucose-lowering effect); conditions: people with T2D, single s.c. 0.3 U/kg, n = 56 faster aspart, 59 IAsp
Procedure: Participants arrived at the clinical site at 4:30 PM the day before dosing, were served a standardized meal and started fasting from 7:00 PM. In order to assess the pharmacodynamics of faster aspart and IAsp, a euglycaemic glucose clamp was conducted with an overnight run‐in period starting at 10:00 PM. Participants received a variable intravenous infusion of human insulin [40 IU Actrapid® 100 IU/mL (Novo Nordisk) in 99.6 mL saline] or 20% glucose to obtain the plasma glucose (PG) target concentration of 5.0 mmol/L. The trial product was administered between 8:00 AM and 10:00 AM the next morning after PG had stabilized for ≥1 hour with minimum insulin infusion and no glucose infusion. At the time of dosing, any infusion of intravenous insulin was terminated. After PG had declined by 0.3 mmol/L (defined as onset of action), a variable intravenous glucose infusion was initiated to keep PG at the target throughout the clamp. The clamp continued for up to 12 hours after dosing, but was terminated if PG was consistently ≥11.1 mmol/L, with no requirement for intravenous glucose infusion during the previous 30 minutes. The individual clamps were performed with similar high quality across both treatments (Figure S1 and Table S1 in Appendix S1).11
Measurement of PG concentrations during the glucose clamp was performed with a SuperGL 2 glucose analyser (Dr Müller Gerätebau GmbH, Freital, Germany) using an electrochemical method.
(§1) All pharmacokinetic and glucose infusion rate (GIR) endpoints to assess onset of exposure and glucose‐lowering effect, initial IAsp exposure and glucose‐lowering effect, offset of exposure and glucose‐lowering effect, and overall exposure and glucose‐lowering effect were defined and derived as previously described.5 In a blinded review of pharmacokinetic profiles, it was observed that selected profiles had pre‐dose values above the LLOQ and stayed above the LLOQ for the entire sampling period. It was therefore decided to baseline‐correct these profiles using a baseline value derived as the mean of all pre‐dose samples. After baseline correction, all pre‐dose values and negative values were set to zero. All pharmacokinetic endpoints for the baseline‐corrected profiles were derived in the same way as those for the non‐baseline‐corrected profiles.

[2] = Serum IAsp pharmacokinetics after single subcutaneous dose (IAsp-specific ELISA); conditions: people with T2D, single s.c. 0.3 U/kg, 59 IAsp
From the text: At the two dosing visits, participants received single dosing of 0.3 U/kg faster aspart (100 U/mL; Novo Nordisk, Bagsværd, Denmark) or IAsp (NovoRapid® 100 U/mL; Novo Nordisk) in a randomized sequence. Both trial products were provided in blinded PDS290 pen‐injector prefilled pens (Novo Nordisk) and administered subcutaneously in a lifted skin fold of the lower abdominal wall above the inguinal area. Use of current insulin was terminated in due time to allow washout before faster aspart and IAsp administration.
Blood sampling for pharmacokinetics was performed frequently from 2 minutes prior to dosing until 12 hours post‐dose (Table S2 in Appendix S1).
A validated IAsp‐specific enzyme‐linked immunosorbent assay with a lower limit of quantification (LLOQ) of 10 pmol/L was used to measure free serum IAsp concentrations following polyethylene glycol precipitation.
as §1

[3] = system: people with type 2 diabetes; test: Suppression of serum free fatty acid (FFA) concentration after dosing; conditions: people with T2D, single s.c. 0.3 U/kg
Procedure: Serum free fatty acid (FFA) concentrations were measured using a Wako NEFA assay (Wako Diagnostics, Mountain View, California), performed on a Roche Cobas C501 analyser (Roche Diagnostics GmbH, Mannheim, Germany).
The suppression of serum FFA concentration initially after dosing was determined by calculating the area over the baseline‐corrected serum FFA concentration‐time curve during the first hour (ΔAOCFFA,0‐1 h) and the first 2 hours (ΔAOCFFA,0‐2 h) as well as the time to reach 50% of the maximum FFA decline in the initial part of the FFA profile (t50% max FFA decline). Furthermore, the minimum FFA concentration (FFAmin) was derived.
Statistical analyses were performed using SAS version 9.4 (SAS Institute, Cary, North Carolina). All endpoints were compared between faster aspart and IAsp using a linear mixed model, with treatment and period as fixed effects and participant as a random effect. The P value for the two‐sided test of no treatment difference using a significance level of 5% was estimated from the model. For FFA endpoints, baseline FFA was included as a covariate. […] Least squares means for each treatment, treatment ratios and 95% confidence intervals (CIs) were calculated on the original scale. All other endpoints were analysed on a linear scale: least squares means for each treatment, treatment differences and 95% CIs were estimated. Treatment ratios and 95% CIs were determined according to Fieller's method.14

[4] = system: people with type 2 diabetes; test: Safety assessments (adverse events, hypoglycaemic episodes, injection site reactions); conditions: single s.c. 0.3 U/kg
From the text: Safety assessments included adverse events (AEs), hypoglycaemic episodes, injection site reactions, laboratory safety measures, physical examination, vital signs and ECG. AEs were defined as treatment‐emergent if they had onset within the period from time of trial product administration until 7 days later. Hypoglycaemic episodes were classified according to the American Diabetes Association12 and in addition defined as “confirmed” if documented by PG <3.1 mmol/L with or without symptoms consistent with hypoglycaemia. Hypoglycaemic episodes were defined as treatment‐emergent if they had onset between the time of trial product administration and the subsequent administration of any insulin; however, these should occur no longer than 16 hours after trial product administration.

[5] = euglycaemic clamp, LS mean ± SE
[6] = LS mean ± SE, n = 56 faster aspart, 58 IAsp

Substance: insulin aspart [IAsp]
- tLate 50% GIRmax (time to 50% of maximum GIR in the late part of the GIR profile) ([1]; offset of glucose-lowering effect, LS mean): 297.7 min
- AUCGIR,0-t (total glucose-lowering effect) ([1]; clamp up to 12 hours, LS mean): 904 mg/kg
- Onset of action (PG decline by 0.3 mmol/L) ([1]; euglycaemic clamp target 5.0 mmol/L, LS mean ± SE): 31.3 ± 1.4 min
- tEarly 50% GIRmax (time to 50% of maximum GIR in the initial part of the GIR profile) [1, 5]: 51.1 ± 2.3 min
- tGIRmax (time to maximum glucose infusion rate) [1, 5]: 155.6 ± 8.7 min
- AUCGIR,0-30min LS Mean ([1]; euglycaemic clamp, LS mean): 7.0 mg/kg
- AUCGIR,0-1h LS Mean ([1]; euglycaemic clamp, LS mean): 67 mg/kg
- AUCGIR,0-1.5h LS Mean ([1]; euglycaemic clamp, LS mean): 127 mg/kg
- AUCGIR,0-2h LS Mean ([1]; euglycaemic clamp, LS mean): 210 mg/kg
- AUCGIR,2-t (partial area under the GIR profile from 2 hours) ([1]; LS mean): 681 mg/kg
- GIRmax (maximum glucose infusion rate) ([1]; LS mean): 3.9 mg/kg/min
- tLate 50% Cmax (time to 50% of maximum IAsp concentration in the late part of the PK profile) ([2]; offset of exposure, LS mean, n = 56 faster aspart): 237.8 min
- Onset of appearance ([2]; free serum IAsp by ELISA, LS mean ± SE, n = 56 faster aspart): 4.4 ± 0.3 min
- AUCIAsp,0-t (total IAsp exposure) ([2]; sampling until 12 hours, LS mean, n = 56 faster aspart): 1.403 nM·h
- tmax (time to maximum IAsp concentration) ([2]; LS mean ± SE, n = 55 faster aspart): 1.45 ± 0.0867 h
- tEarly 50% Cmax (time to 50% of maximum IAsp concentration in the initial part of the PK profile) ([2]; LS mean ± SE, n = 56 faster aspart): 27.9 ± 1.0 min
- AUCIAsp,0-15min LS Mean ([2]; LS mean, n = 56 faster aspart): 0.0074 nM·h
- AUCIAsp,0-1h LS Mean ([2]; LS mean, n = 56 faster aspart): 0.189 nM·h
- AUCIAsp,0-1.5h LS Mean ([2]; LS mean, n = 56 faster aspart): 0.355 nM·h
- AUCIAsp,0-2h LS Mean ([2]; LS mean, n = 56 faster aspart): 0.516 nM·h
- AUCIAsp,2-t (partial area under the serum IAsp profile from 2 hours) ([2]; LS mean, n = 56 faster aspart): 0.841 nM·h
- Cmax (maximum IAsp concentration) ([2]; LS mean, n = 56 faster aspart): 0.384 nM
- AUCIAsp,0-30min LS Mean ([2]; primary endpoint, LS mean, n = 56 faster aspart): 0.042 nM·h
- t50% max FFA decline (time to reach 50% of the maximum decline in FFA) [3, 6]: 50.0 ± 2.3 min
- ΔAOCFFA,0-1 h (area over the baseline-corrected FFA curve, first hour) [3, 6]: 0.09 ± 0.01 mmol·h/L
- ΔAOCFFA,0-2 h (area over the baseline-corrected FFA curve, first 2 hours) [3, 6]: 0.38 ± 0.02 mmol·h/L
- Mean minimum FFA concentration (FFAmin) ([3]; mean ± spread as printed): 0.08 ± 0.05 mmol/L
- Injection site reactions or treatment-emergent hypoglycaemic episodes ([4]; people with T2D): no injection site reactions or treatment‐emergent hypoglycaemic episodes were reported
- Tolerability ([4]; people with T2D): well tolerated
- Number of treatment-emergent AEs ([4]; safety analysis set 61 participants with T2D, onset within 7 days of dosing): 11
